According to publication PMC5381215 (2017):

Columns and labels:
Experiment in all cases: SPR
[1] = biological target: HSA peptide 40 (human, UniProt P02768)
[2] = biological target: HSA peptide 4 (human, UniProt P02768)
[3] = biological target: HSA peptide 13 (human, UniProt P02768)

B1: rituximab (antibody, V domains shown)
VH: QVQLQQPGAELVKPGASVKMSCKASGYTFTSYNMHWVKQTPGRGLEWIGAIYPGNGDTSYNQKFKGKATLTADKSSSTAYMQLSSLTSEDSAVYYCARSTYYGGDWYFNVWGAGTTVTVSA
VL: QIVLSQSPAILSASPGEKVTMTCRASSSVSYIHWFQQKPGSSPKPWIYATSNLASGVPVRFSGSGSGTSYSLTISRVEAEDAATYYCQQWTSNPPTFGGGTKLEIK
modifications: AlexaFluor 488 label (only in the ImageStream experiment, a3)
Kd [1]: 0.52 nM | Kd [2]: 57 nM | Kd [3]: 400 nM
